Test in all cases: cell-based or functional assay
Assay [1] has as its target T1, CD376 PV1-RfxCas13d-566C-NLS-BGHpA.
T1 sequence: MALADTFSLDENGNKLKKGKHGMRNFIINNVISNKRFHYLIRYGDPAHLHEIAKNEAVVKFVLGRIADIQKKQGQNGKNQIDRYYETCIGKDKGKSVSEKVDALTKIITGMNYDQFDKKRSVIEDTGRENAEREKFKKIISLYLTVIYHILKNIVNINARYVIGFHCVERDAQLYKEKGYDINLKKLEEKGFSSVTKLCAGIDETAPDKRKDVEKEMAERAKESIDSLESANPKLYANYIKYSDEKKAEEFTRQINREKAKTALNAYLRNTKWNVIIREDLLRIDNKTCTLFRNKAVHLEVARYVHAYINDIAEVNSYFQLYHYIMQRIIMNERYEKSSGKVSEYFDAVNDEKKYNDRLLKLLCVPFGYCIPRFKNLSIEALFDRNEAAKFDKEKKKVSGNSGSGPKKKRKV

Assay [2] addresses T2, CD380 PV1-RfxCas13d-656C-NLS-BGHpA.
T2 sequence: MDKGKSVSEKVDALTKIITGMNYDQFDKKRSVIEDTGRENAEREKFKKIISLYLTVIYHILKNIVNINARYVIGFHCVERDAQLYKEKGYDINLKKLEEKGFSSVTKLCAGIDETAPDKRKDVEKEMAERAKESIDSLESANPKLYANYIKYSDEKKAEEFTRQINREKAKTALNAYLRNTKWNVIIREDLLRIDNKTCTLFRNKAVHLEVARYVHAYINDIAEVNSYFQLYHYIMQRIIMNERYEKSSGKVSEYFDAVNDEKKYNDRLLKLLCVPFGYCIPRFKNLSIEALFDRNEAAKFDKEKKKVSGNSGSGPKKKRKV

For assay [3], the target named is T3, CD400 PV1-GAI-L1-RfxCas13d-264C-NLS-BGHpA.
T3 sequence: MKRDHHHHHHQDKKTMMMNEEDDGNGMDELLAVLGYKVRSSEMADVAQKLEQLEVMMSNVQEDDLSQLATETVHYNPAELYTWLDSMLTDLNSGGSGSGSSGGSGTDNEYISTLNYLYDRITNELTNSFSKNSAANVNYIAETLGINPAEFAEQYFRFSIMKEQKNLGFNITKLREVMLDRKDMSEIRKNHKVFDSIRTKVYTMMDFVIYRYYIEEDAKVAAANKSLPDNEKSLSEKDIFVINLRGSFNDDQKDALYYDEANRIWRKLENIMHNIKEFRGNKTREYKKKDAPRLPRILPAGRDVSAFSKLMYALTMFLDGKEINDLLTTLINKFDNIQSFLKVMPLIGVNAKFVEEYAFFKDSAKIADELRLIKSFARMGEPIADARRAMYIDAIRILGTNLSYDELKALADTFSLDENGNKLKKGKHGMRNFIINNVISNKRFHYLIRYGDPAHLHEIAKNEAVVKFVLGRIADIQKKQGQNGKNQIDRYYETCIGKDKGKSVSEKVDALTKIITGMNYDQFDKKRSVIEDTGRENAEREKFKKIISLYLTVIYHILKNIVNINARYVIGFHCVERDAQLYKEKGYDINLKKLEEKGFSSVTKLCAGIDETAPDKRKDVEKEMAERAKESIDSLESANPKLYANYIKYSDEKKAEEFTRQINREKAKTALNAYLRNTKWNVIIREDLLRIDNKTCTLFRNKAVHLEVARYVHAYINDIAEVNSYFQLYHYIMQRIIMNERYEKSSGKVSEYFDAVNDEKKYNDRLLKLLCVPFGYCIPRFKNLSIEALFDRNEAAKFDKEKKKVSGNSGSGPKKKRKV

Where only a bound is given, the exact number is not on record here.

B1: CD375 PV1-RfxCas13d-N565-NLS-BGHpA (protein)
chain: MIEKKKSFAKGMGVKSTLVSGSKVYMTTFAEGSDARLEKIVEGDSIRSVNEGEAFSAEMADKNAGYKIGNAKFSHPKGYAVVANNPLYTGPVQQDMLGLKETLEKRYFGESADGNDNICIQVIHNILDIEKILAEYITNAAYAVNNISGLDKDIIGFGKFSTVYTYDEFKDPEHHRAAFNNNDKLINAIKAQYDEFDNFLDNPRLGYFGQAFFSKEGRNYIINYGNECYDILALLSGLRHWVVHNNEEESRISRTWLYNLDKNLDNEYISTLNYLYDRITNELTNSFSKNSAANVNYIAETLGINPAEFAEQYFRFSIMKEQKNLGFNITKLREVMLDRKDMSEIRKNHKVFDSIRTKVYTMMDFVIYRYYIEEDAKVAAANKSLPDNEKSLSEKDIFVINLRGSFNDDQKDALYYDEANRIWRKLENIMHNIKEFRGNKTREYKKKDAPRLPRILPAGRDVSAFSKLMYALTMFLDGKEINDLLTTLINKFDNIQSFLKVMPLIGVNAKFVEEYAFFKDSAKIADELRLIKSFARMGEPIADARRAMYIDAIRILGTNLSYDELKPKKKRKV
As to B1, the gRNA induced knockdown of mCherry without CID domains in assay [1] was under 80%.

B2: CD379 PV1-RfxCas13d-N655-NLS-BGHpA (protein)
chain: MIEKKKSFAKGMGVKSTLVSGSKVYMTTFAEGSDARLEKIVEGDSIRSVNEGEAFSAEMADKNAGYKIGNAKFSHPKGYAVVANNPLYTGPVQQDMLGLKETLEKRYFGESADGNDNICIQVIHNILDIEKILAEYITNAAYAVNNISGLDKDIIGFGKFSTVYTYDEFKDPEHHRAAFNNNDKLINAIKAQYDEFDNFLDNPRLGYFGQAFFSKEGRNYIINYGNECYDILALLSGLRHWVVHNNEEESRISRTWLYNLDKNLDNEYISTLNYLYDRITNELTNSFSKNSAANVNYIAETLGINPAEFAEQYFRFSIMKEQKNLGFNITKLREVMLDRKDMSEIRKNHKVFDSIRTKVYTMMDFVIYRYYIEEDAKVAAANKSLPDNEKSLSEKDIFVINLRGSFNDDQKDALYYDEANRIWRKLENIMHNIKEFRGNKTREYKKKDAPRLPRILPAGRDVSAFSKLMYALTMFLDGKEINDLLTTLINKFDNIQSFLKVMPLIGVNAKFVEEYAFFKDSAKIADELRLIKSFARMGEPIADARRAMYIDAIRILGTNLSYDELKALADTFSLDENGNKLKKGKHGMRNFIINNVISNKRFHYLIRYGDPAHLHEIAKNEAVVKFVLGRIADIQKKQGQNGKNQIDRYYETCIGKPKKKRKV
For B2, the gRNA induced knockdown of mCherry without CID domains in assay [2] was under 80%.

B3: CD399 PV1-RfxCas13d-N263-L1-GID-NLS-BGHpA (protein)
chain: MIEKKKSFAKGMGVKSTLVSGSKVYMTTFAEGSDARLEKIVEGDSIRSVNEGEAFSAEMADKNAGYKIGNAKFSHPKGYAVVANNPLYTGPVQQDMLGLKETLEKRYFGESADGNDNICIQVIHNILDIEKILAEYITNAAYAVNNISGLDKDIIGFGKFSTVYTYDEFKDPEHHRAAFNNNDKLINAIKAQYDEFDNFLDNPRLGYFGQAFFSKEGRNYIINYGNECYDILALLSGLRHWVVHNNEEESRISRTWLYNLDKNLSGGSGSGSSGGSGTMAASDEVNLIESRTVVPLNTWVLISNFKVAYNILRRPDGTFNRHLAEYLDRKVTANANPVDGVFSFDVLIDRRINLLSRVYRPAYADQEQPPSILDLEKPVDGDIVPVILFFHGGSFAHSSANSAIYDTLCRRLVGLCKCVVVSVNYRRAPENPYPCAYDDGWIALNWVNSRSWLKSKKDSKVHIFLAGDSSGGNIAHNVALRAGESGIDVLGNILLNPMFGGNERTESEKSLDGKYFVTVRDRDWYWKAFLPEGEDREHPACNPFSPRGKSLEGVSFPKSLVVVAGLDLIRDWQLAYAEGLKKAGQEVKLMHLEKATVGFYLLPNNNHFHNVMDEISAFVNAECPKKKRKV
Consider B3, for which the knockdown efficiency of mCherry with gibberellin and gRNA in assay [3] was over 60%.
